Values quoted from earlier work, collected in PMC9811451.

Target: ACE2 (Homo sapiens) (UniProt Q9BYF1)
Sequence (Q9BYF1 18-740): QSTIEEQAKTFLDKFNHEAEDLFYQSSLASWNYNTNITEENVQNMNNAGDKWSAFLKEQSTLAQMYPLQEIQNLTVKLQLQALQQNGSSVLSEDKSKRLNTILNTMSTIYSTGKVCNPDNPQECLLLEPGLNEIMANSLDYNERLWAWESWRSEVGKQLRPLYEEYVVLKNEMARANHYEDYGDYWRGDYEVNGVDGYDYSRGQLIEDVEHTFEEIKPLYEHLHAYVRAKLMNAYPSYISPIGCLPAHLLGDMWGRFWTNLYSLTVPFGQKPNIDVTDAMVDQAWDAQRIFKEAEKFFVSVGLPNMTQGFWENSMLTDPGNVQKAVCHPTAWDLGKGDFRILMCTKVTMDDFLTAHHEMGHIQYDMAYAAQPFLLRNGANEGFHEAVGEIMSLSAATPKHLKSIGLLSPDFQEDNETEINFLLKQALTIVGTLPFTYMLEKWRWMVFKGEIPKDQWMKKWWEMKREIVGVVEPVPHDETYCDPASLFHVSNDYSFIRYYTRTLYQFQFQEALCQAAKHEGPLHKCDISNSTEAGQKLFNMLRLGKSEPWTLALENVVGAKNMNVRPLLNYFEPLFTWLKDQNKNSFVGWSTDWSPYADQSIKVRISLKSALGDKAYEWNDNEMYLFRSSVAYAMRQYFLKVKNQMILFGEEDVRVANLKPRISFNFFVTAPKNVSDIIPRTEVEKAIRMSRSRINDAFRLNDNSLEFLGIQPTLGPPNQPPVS

## Spike (from UniProt P0DTC2)
  Kd: 4 nM
